The text below walks through data of patent publication US20080063623A1 (INTEVERT INTERNATIONAL B V, published 2008).

This series deals with the molecule itself. As to the kind of experiment: transfection of COS-7 cells, non-denaturing Western blot of supernatants. For orientation: A western blot detects proteins with antibodies after separation by electrophoresis.

Method: COS-7 cells were transfected with 1.5 μg of each cDNA construct using the Invitrogen Life Technologies Lipofectamine™ reagent (as described by the manufacturer) and cultured in 3-cm dishes with DMEM (without FCS and penicillin/streptomycin). After 8 h, transfected cells were washed and cultured in DMEM with penicillin/streptomycin and 10% FCS. After 72 h incubation at 37° C./5% C0₂ the cell culture supernatants were harvested and centrifuged at 13,000 rpm for 10 min at 4° C. to remove cell debris. The supernatants were analyzed via Western blotting and used immediately or stored at −70° C.
Cell culture supernatants from transfected COS-7 cells were size fractionated using 4-12% Nu-PAGE™ (Invitrogen) and blotted onto nitrocellulose filters (Schleicher & Schuell). Western blots were blocked in 3% skimmed milk (MPBS) in PBS, and subsequently incubated with a polyclonal antibody that was raised against a FeIL-12 p40 peptide diluted 1:300 in MPBS. Blocking and antibody incubation were each performed for 1 h at room temperature. After extensive washing (3 times 5 min), blots were incubated with alkaline peroxidase (AP)-conjugated goat anti-rabbit IgG antibodies (Sanbio) diluted 1:1000 in MPBS for 1 h at room temperature. After washing (3 times 5 min), bound AP-labeled secondary antibodies were visualized via staining. […]

B1: chicken IL-12 p40 subunit (ChIL-12 p40) (ligand)
chain: QWKLRENVYVIESEWNDETPAKKVKLTCDTSDEALPVYWKKGTELKGTGKTLTTEVKEFPDAGNYTCLSAKTHEIISYSFFLITKVDSNGQMIRSILKSYKEPSKTFLKCEAKNYSGIFTCSWMTENESPSVKFTIRSLKGSQGDVTCSSPVARTDKSVTEYTAQCQKENYCPFAEEHQPTEMFLEVIDEVEYENYTSSFFIRDIIKPDPPQCQYASTNGTVTWTYPKTWSTPKSYFPLTFRVKVESTKKYKSKVYDADEQSIQIPKTGPKDKISVQARDRYYNSSWSEWSTLCR
notes: also called chicken p40; clone pND89
As for B1, the binding result is reported as “binds”.
